Data set [1] deals with PEDV nsp12-A382R (porcine epidemic diarrhea virus (PEDV)). Briefly: native MS.
Data set [2] addresses PEDV nsp12 (RdRp);PEDV nsp7;PEDV nsp8 (Porcine epidemic diarrhea virus …, UniProt P0C6Y4;P0C6Y4;P0C6Y4 4101-5027;3580-3662;3663-3857, ||). As to the kind of experiment: native mass spectrometry.
The next data set concerns the target T1, PEDV nsp12 (porcine epidemic diarrhea virus (PEDV), UniProt P0C6Y4).
T1 sequence: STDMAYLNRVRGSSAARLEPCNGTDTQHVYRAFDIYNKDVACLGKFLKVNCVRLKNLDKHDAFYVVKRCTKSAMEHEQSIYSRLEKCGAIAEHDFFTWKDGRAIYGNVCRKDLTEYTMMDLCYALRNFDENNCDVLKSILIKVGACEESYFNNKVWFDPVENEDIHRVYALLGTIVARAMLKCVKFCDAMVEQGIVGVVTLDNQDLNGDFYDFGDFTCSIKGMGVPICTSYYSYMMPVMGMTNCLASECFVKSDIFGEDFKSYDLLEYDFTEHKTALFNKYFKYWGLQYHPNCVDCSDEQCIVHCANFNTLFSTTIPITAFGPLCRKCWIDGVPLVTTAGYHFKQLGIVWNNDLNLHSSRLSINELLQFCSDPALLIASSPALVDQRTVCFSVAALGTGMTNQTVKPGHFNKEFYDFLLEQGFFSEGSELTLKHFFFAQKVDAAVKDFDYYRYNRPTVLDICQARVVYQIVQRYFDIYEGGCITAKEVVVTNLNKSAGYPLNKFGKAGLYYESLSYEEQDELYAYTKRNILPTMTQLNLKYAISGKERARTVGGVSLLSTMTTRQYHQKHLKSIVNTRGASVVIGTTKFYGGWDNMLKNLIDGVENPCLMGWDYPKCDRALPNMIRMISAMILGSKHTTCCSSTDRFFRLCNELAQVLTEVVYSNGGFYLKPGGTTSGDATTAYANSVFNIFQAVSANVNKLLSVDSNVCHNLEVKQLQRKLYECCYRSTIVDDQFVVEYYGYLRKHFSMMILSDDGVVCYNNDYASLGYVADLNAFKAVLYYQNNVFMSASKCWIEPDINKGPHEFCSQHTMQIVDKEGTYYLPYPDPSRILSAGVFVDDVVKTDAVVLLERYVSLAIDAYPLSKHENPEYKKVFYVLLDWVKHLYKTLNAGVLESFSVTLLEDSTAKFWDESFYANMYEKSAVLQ
As to the kind of experiment: native MS.

These results are taken from paper PMC11162792 (Nucleic Acids Research, 2023).

On to PEDV nsp12-A382R (enzyme), for which the stoichiometry N in data set [1] worked out at 2.

B1: Pair 1 primer/template RNA (short) (dsRNA)
RNA 1: CAUUCUCCUAAGAAGCUAUUAAAAUCACA
RNA 2: AAAAAGGGUUGUGAUUUUAAUAGCUUCUUAGGAGAAUG
Consider B1, for which the binding result in data set [2] was “binds”.

B2: PEDV nsp7 (natural protein)
chain: SKLTDIKCSNVVLLGCLSSMNVSANSTEWAYCVDLHNKINLCNDPEKAQEMLLALLAFFLSKNSAFGLDDLLESYFNDNSMLQ
For B2, the “stoichiometry N” value with PEDV nsp12 came out at 1.

B3: PEDV nsp8 (natural protein)
chain: SVASTYVGLPSYVIYENARQQYEDAVNNGSPPQLVKQLRHAMNVAKSEFDREASTQRKLDRMAEQAAAQMYKEARAVNRKSKVVSAMHSLLFGMLRRLDMSSVDTILNLAKDGVVPLSVIPAVSATKLNIVTSDIDSYNRIQREGCVHYAGTIWNIIDIKDNDGKVVHVKEVTAQNAESLSWPLVLGCERIVKLQ
Regarding B3, the “stoichiometry N” value in the data set with PEDV nsp12 came to 2.

As a reminder, the stoichiometry N is the number of molecules, sites or subunits per partner or assembly.
